Here are results for 1 molecule from article PMC10844294, “A monoclonal antibody targeting a large surface of the receptor binding motif shows pan-neutralizing SARS-CoV-2 activity” (Nature Communications, 2024).

In this assay the target is T1, B.1.1.529 (BA.1) S1 + S2 trimer-His Recombinant Protein (SARS-CoV-2 Omicron BA.1 (B.1.1.529), strain).
T1 construct: also called Omicron BA.1 trimeric spike; BA.1 spike
The experiment in a line: cryo-EM structure. Conditions: both partners purified.

B1: 17T2 Fab fragment (Fab, V domains shown)
VH: QVQLVQSGPEVKKPGTSVKVSCKAPVFTFSISAVQWVRQARGQRLEWIGWIVVGSGNTNYAQNFQERVTITTDMSTGTVYMELSGLRSEDTAMYYCAAPYCNRTTCYDGFDLWGQGTMVTVSS
VL: EIVLTQSPGTLSLSPGERATLSCRASQSISSNYLAWYQQKPGQAPRLLIYGASSRATGIPDRFSGSGSGTDFTLSINRLEPEDFAMYYCQHYGGLSRWTFGQGTKVEIK
notes: also called Fab 17T2
For B1, the “stoichiometry N” value came out at 3 Fab per spike trimer.

In general, stoichiometry N refers to a count of units in the complex or per binding partner.
